The target of the experiment is T1, full-length pUL89 (His-pUL89) (Human cytomegalovirus, UniProt P16732).
T1 construct: made in house; host or cells: HEK293
The experiment is described as follows: Alpha assay (Amplified Luminescent Proximity Homogeneous Assay) of the pUL56/pUL89 protein-protein interaction. The format is binding, human cytomegalovirus (HCMV), AD169. The protocol: FIG. 2: Determination of pUL56 binding domains for the interaction with pUL89 Alpha assay results. The Alpha assay for the binding of full-length pUL89 (His-pUL89, 1.5E+03 nM) was performed with 5E+02 nM wild-type pUL56 (HA-pUL56) or a deletion mutant of pUL56 (HA-pUL56 Del W671-F680). As a negative control, proteins were used alone and a reaction was performed without proteins (mock). Two measures for each reaction were performed in duplicate.
Alpha (Amplified Luminescent Proximity Homogeneous Assay) experiments were conducted according to the manufacturer's protocol (PerkinElmer, USA). Five μL of transfected MRC-5 lysate with HCMV-BAC is first disposed in wells of a 96-well AlphaPlate. The final concentration of each proteins was optimized to obtain the best value of interaction. Ten μL of each purified protein were combined (to give a final assay concentration of 500 nM of 3xHA-pUL56 and 1.5 μM of 6xHis-pUL89). Ten μL and 15 μL of 10 mg/mL of donor beads and acceptor beads, respectively, were added and incubated for 1 hour. Plates were read on a PerkinElmer EnVision™ plate reader using an excitation wavelength of 680 nm and emission detection was set at 615 nm.
HEK293 were transfected with SC784 and pCI-neo His-89 expression plasmids and protein-protein interactions were carried out by the Alpha assay. This technology represents a powerful method to highlight protein-protein interactions (Ullman et al., 1994) (Waller et al., 2010). […]
Alpha assay needs both acceptor and donor beads. […] In the absence of a specific biological interaction between proteins, singlet molecules produced by the Donor bead cannot be detected beyond 200 nm from the Acceptor bead (data not shown). […] Alpha assays with 3xHA-pUL56 and 6xHis-pUL89 results in the production of over 9,000 relative light units (RLU), over two-fold more than negative controls (3xHA-pUL56 or His-pUL89) (FIG. 2). pUL56 depleted of its W671-F680 fragment was in turn soaked with pUL89-WT and their affinity assessed by Alpha analysis. […]

2 molecules from patent publication US11174322B2, “Antibodies and peptides to treat HCMV related diseases” (priority 2017, dated 2021) can be followed below.

T1 sequence (P16732 whole entry): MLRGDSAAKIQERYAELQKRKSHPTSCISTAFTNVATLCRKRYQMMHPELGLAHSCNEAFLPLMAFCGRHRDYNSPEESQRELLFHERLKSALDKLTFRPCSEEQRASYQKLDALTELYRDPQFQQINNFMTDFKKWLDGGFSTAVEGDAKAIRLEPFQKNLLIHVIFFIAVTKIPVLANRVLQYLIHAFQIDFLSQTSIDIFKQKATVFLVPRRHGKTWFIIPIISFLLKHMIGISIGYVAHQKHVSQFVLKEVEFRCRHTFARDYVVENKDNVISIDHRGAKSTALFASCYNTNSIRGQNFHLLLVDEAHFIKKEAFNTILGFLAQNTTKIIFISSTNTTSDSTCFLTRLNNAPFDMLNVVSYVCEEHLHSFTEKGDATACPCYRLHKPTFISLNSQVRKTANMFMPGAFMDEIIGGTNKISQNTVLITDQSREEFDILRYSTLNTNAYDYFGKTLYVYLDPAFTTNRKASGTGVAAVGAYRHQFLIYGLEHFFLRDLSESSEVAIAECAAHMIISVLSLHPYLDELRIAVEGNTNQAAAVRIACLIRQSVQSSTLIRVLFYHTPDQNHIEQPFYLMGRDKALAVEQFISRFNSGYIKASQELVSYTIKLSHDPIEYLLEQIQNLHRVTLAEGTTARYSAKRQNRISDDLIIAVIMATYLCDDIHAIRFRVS

B1: pUL56 depleted of its W671-F680 fragment (protein)
chain: MEMNLLQKLCVVCSKCNEYAMELECLKYCDPNVLLAESTPFKRNAAAIVYLYRKIYPEVVAQNRTQSSLLTLYLEMLLKALHEDTALLDRALMAYSRQPDRAAFYRTVLRLDRCDRHHTVELQFTDNVRFSVSLATLNDIERFLCKMNYVYGILAPEAGLEVCAQLLELLRRLCGISPVARQEVYVEGTTCAQCYEELTIIPNQGRSLNKRLQGLLCNHIAVHRPSSQSDVNIQTVEQDLLDLTTRIPHLAGVLSALKSLFSSSSAYHSYIQEAEEALREYNLFTDIPERIYSLSDFTYWSRTSEVIVKRVGITIQQLNVYHQLCRALMNGISRHLYGEDVEDIFVLGEKALDGEERMFVGSVFAAPNRIIDLITSLSIQAFEDNPVFNKLHESNEMYTKIKHILEEIRRPLPDGTGGDGPEGEAIHLRGREAMSGTGTTLMTASNSSNSSTHSQRNNGGGGRARGGGKKAVGGGANGQDGDGSENGLRVRNCDEHEALDLVDARSRIHNVTREVNVRKRAYLQKVSEVGYGKVIRCIKTQERLTSKLIDVNLVGPLCLDFISKLMNGFLYRSQYHQDQDVVDVGDQFTYDEHLYVVNNLIHKSLPVESLPLLGQQIYELCNGPLFTHCTDRYPLSHNVDMAYACDNAGVLPHVKDDLVKCAEGTVYPSENFSDCQDLNVLQKEMWMHVRELVLSVALYNETFGKQLSIACLRDELHPDRDVILTYNKEWPLLLRHEGNLYKSKDLYLLLYRHLSRPDESGDVPTAPVAKPSTLTAAAAVSGAFREPDRPWLPSPYPSSSTAGVSRRVRATRKRPRRASSLLDLARDEHGIQDLVPGSLR
modifications: left off: small tags and cut ends
B1: the “decrease of the interaction signal with pUL89-WT” value (pUL56 deletion mutant versus wild-type pUL56, FIG. 2) is listed as 50%.

B2: 3xHA-pUL56: full-length amino-terminal 3xHA-tagged pUL56, HCMV large terminase subunit, purified from transfected HEK293 (protein)
chain: MEMNLLQKLCVVCSKCNEYAMELECLKYCDPNVLLAESTPFKRNAAAIVYLYRKIYPEVVAQNRTQSSLLTLYLEMLLKALHEDTALLDRALMAYSRQPDRAAFYRTVLRLDRCDRHHTVELQFTDNVRFSVSLATLNDIERFLCKMNYVYGILAPEAGLEVCAQLLELLRRLCGISPVARQEVYVEGTTCAQCYEELTIIPNQGRSLNKRLQGLLCNHIAVHRPSSQSDVNIQTVEQDLLDLTTRIPHLAGVLSALKSLFSSSSAYHSYIQEAEEALREYNLFTDIPERIYSLSDFTYWSRTSEVIVKRVGITIQQLNVYHQLCRALMNGISRHLYGEDVEDIFVLGEKALDGEERMFVGSVFAAPNRIIDLITSLSIQAFEDNPVFNKLHESNEMYTKIKHILEEIRRPLPDGTGGDGPEGEAIHLRGREAMSGTGTTLMTASNSSNSSTHSQRNNGGGGRARGGGKKAVGGGANGQDGDGSENGLRVRNCDEHEALDLVDARSRIHNVTREVNVRKRAYLQKVSEVGYGKVIRCIKTQERLTSKLIDVNLVGPLCLDFISKLMNGFLYRSQYHQDQDVVDVGDQFTYDEHLYVVNNLIHKSLPVESLPLLGQQIYELCNGPLFTHCTDRYPLSHNVDMAYACDNAGVLPHVKDDLVKCAEGTVYPSEWMVVKYMGFFNFSDCQDLNVLQKEMWMHVRELVLSVALYNETFGKQLSIACLRDELHPDRDVILTYNKEWPLLLRHEGNLYKSKDLYLLLYRHLSRPDESGDVPTAPVAKPSTLTAAAAVSGAFREPDRPWLPSPYPSSSTAGVSRRVRATRKRPRRASSLLDLARDEHGIQDLVPGSLR
modifications: left off: small tags and cut ends
notes: full-length amino-terminal 3xHA-tagged pUL56, HCMV large terminase subunit, purified from transfected HEK293
Consider B2, for which, where the note is “500 nM 3xHA-pUL56 with 1.5 μM 6xHis-pUL89”, the “Alpha assay signal relative to negative controls (3xHA-pUL56 or His-pUL89 alone)” value is on record as “over two-fold”. For the same molecule, the “Alpha assay signal (light production at 615 nm)” value (500 nM 3xHA-pUL56 with 1.5 μM 6xHis-pUL89, purified proteins from HEK293) was “over 9,000 relative light units (RLU)”.
